For series [1], the target named is T1, mIL-2/MMP1cs/4x linker/mIL-2Rα + 6His (UniProt P04351).
T1 sequence: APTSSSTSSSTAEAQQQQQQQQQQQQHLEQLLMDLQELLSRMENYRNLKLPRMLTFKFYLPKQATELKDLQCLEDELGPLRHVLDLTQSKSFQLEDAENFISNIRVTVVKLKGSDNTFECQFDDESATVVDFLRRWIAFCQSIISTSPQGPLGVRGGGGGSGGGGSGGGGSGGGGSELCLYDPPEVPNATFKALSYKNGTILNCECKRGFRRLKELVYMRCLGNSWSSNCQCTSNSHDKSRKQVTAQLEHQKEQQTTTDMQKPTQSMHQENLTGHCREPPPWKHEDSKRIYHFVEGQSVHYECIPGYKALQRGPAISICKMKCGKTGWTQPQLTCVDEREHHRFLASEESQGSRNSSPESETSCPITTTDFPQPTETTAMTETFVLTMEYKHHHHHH

Series [2] deals with T2, mIL-2/MMP2cs/4x linker/mIL-2Rα + 6His (UniProt P04351).
T2 sequence: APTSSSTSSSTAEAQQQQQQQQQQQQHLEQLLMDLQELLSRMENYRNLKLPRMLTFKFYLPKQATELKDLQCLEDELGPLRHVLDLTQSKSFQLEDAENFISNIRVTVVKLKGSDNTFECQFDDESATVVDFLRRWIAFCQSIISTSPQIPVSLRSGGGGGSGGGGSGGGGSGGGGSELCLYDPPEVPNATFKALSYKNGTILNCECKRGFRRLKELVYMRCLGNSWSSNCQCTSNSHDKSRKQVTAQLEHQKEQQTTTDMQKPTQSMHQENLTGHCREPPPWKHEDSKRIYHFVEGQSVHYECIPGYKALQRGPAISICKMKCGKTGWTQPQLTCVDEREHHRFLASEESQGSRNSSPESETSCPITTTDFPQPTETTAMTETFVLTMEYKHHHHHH

For series [3], the target named is T3, mIL-2/MMP3-2cs/4x linker/mIL-2Rα + 6His (UniProt P04351).
T3 sequence: T2 sequence with I150V, V152L, R155Y

Series [4] has as its target T4, mIL-2/MMP4-1cs/4x linker/mIL-2Rα + 6His (UniProt P04351).
T4 sequence: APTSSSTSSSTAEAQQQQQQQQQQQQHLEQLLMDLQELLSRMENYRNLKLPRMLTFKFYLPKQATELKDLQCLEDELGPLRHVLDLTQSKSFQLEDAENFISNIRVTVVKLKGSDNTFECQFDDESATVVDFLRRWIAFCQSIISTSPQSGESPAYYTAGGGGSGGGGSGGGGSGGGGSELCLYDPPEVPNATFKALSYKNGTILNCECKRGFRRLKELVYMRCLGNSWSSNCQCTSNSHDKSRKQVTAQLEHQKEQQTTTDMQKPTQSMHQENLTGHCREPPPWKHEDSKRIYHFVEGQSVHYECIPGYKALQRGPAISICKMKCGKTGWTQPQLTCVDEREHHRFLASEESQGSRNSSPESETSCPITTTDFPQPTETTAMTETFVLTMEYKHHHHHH

Series [5] deals with hIL-2/PSAcs/2x linker/scFv + 6His (UniProt P60568).
Series [6] addresses mIL-2/PSAcs/2x linker/mIL-2Rα (UniProt P04351).
For series [7], the target named is mIL-2/PSAcs/4x linker/mIL-2Rα (UniProt P04351).
The target in series [8] is mouse IL-2/PSAcs/Mip-1α fusion protein (UniProt P04351).

Numbering of substitutions follows the chain as printed.

Chain of matrix metalloproteinase 2 (MMP2), APMA-activated (R & D Systems) (P08253 110-660): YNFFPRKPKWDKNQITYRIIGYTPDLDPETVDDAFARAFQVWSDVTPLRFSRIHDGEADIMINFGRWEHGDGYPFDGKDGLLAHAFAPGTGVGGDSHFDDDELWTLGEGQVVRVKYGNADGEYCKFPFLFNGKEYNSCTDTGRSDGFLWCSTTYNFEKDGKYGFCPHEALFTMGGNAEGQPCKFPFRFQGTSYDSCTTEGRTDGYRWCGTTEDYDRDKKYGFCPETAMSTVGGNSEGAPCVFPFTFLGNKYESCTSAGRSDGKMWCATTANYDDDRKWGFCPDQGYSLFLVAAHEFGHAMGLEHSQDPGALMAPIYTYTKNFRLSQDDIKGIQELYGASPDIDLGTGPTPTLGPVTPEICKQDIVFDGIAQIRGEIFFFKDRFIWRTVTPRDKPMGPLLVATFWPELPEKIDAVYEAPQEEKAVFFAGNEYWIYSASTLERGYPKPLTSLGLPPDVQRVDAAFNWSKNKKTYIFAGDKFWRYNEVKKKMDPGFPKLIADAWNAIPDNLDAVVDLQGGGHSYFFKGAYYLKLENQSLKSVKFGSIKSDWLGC
Chain of hIL-2/PSAcs/2x linker/scFv + 6His (P60568 whole entry, looked up): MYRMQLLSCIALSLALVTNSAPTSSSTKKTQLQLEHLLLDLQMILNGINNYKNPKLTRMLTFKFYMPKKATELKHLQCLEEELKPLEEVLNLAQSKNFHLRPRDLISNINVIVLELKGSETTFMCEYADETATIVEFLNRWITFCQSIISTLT

As to “matrix metalloproteinase 9 (MMP9), APMA-activated (R & D Systems)”, the “cleavage by activated MMP9, immunoblot” value in series [1] was “These cleavage sites were also capable of being cleaved using activated MMP2 and MMP9”; in series [2], “These cleavage sites were also capable of being cleaved using activated MMP2 and MMP9”; in series [3], “These cleavage sites were also capable of being cleaved using activated MMP2 and MMP9”. The “cleavage by MMP9, anti-IL-2 immunoblot” value in series [4] is recorded as “the fusion protein can be cleaved by MMP2 or MMP9”.
With “matrix metalloproteinase 2 (MMP2), APMA-activated (R & D Systems)”, the “cleavage by activated MMP2, immunoblot” value in series [1] was “These cleavage sites were also capable of being cleaved using activated MMP2 and MMP9”; in series [2] it was “These cleavage sites were also capable of being cleaved using activated MMP2 and MMP9”; in series [3], “These cleavage sites were also capable of being cleaved using activated MMP2 and MMP9”. Besides, the “cleavage by MMP2, anti-IL-2 immunoblot” value in series [4] is recorded as “the fusion protein can be cleaved by MMP2 or MMP9”.
“prostate specific antigen (PSA), purified (Cortex Biochem)”: in series [5], the “cleavage by PSA, anti-human IL-2 immunoblot” value was “the human IL-2/PSAcs/human scFv-2 fusion protein can be cleaved by PSA”. Further, the “cleavage by PSA, anti-IL-2 immunoblot” value was “Immunoblot analyses revealed that the fusion proteins could be cleaved by PSA” in series [6], “Immunoblot analyses revealed that the fusion proteins could be cleaved by PSA” in series [7] and “the IL-2/Mip1α fusion protein could be cleaved by PSA” in series [8].

Values taken from patent US20130089516.
